Laboratory results from patent publication US20230220042A1 (SHANGHAI JIAO TONG UNIVERSITY SCHOOL OF MEDICINE, published 2023).
Substitutions are numbered along the chain they refer to.

B1: human IgG2 anti-mouse CD40 surface displayed antibody, Fc mutant S298L (antibody, name in EU numbering)
light chain (with the P2A rest): DTVLTQSPALAVSPGERVTISCRASDSVSTLMHWYQQKPGQQPKLLIYLASHLESGVPARFSGSGSGTDFTLTIDPVEADDTATYYCQQSWNDPWTFGGGTKLELKRTVAAPSVFIFPPSDEQLKSGTASVVCLLNNFYPREAKVQWKVDNALQSGNSQESVTEQDSKDSTYSLSSTLTLSKADYEKHKVYACEVTHQGLSSPVTKSFNRGECGSGATNFSLLKQAGDVEENPG
heavy chain: EVQLVESDGGLVQPGRSLKLPCAASGFTFSDYYMAWVRQAPTKGLEWVASISYDGSSTYYRDSVKGRFTISRDNAKSTLYLQMDSLRSEDTATYYCGRHSSYFDYWGQGVMVTVSSASTKGPSVFPLAPCSRSTSESTAALGCLVKDYFPEPVTVSWNSGALTSGVHTFPAVLQSSGLYSLSSVVTVPSSNFGTQTYTCNVDHKPSNTKVDKTVERKCCVECPPCPAPPVAGPSVFLFPPKPKDTLMISRTPEVTCVVVDVSHEDPEVQFNWYVDGVEVHNAKTKPREEQFNLTFRVVSVLTVVHQDWLNGKEYKCKVSNKGLPAPIEKTISKTKGQPREPQVYTLPPSREEMTKNQVSLTCLVKGFYPSDIAVEWESNGQPENNYKTTPPMLDSDGSFFLYSKLTVDKSRWQQGNVFSCSVMHEALHNHYTQKSLSLSPGKLEPPPSTVSNMATVAVLVVLGAAIVTGAVVAFVMKMRRRNTGGKGGDYALAPGSQTSDLSLPDCKVMVHDPHSLA
notes: as m1; positions are Eu numbers; copies: 2 + 2
B2: human IgG2 anti-mouse CD40 surface displayed antibody, Fc mutant P331C (antibody, name in EU numbering)
light chain (with the P2A rest): B1 light chain (with the P2A rest)
heavy chain: B1 heavy chain with L293S, P326C
notes: as for B1
B3: human IgG2 anti-mouse CD40 surface displayed antibody, Fc mutant G327A (antibody, name in EU numbering)
light chain (with the P2A rest): B1 light chain (with the P2A rest)
heavy chain: B1 heavy chain with L293S, G322A
notes: as for B1
B4: human IgG2 anti-mouse CD40 surface displayed antibody, Fc mutant S298N (antibody, name in EU numbering)
light chain (with the P2A rest): B1 light chain (with the P2A rest)
heavy chain: B1 heavy chain with L293N
notes: as for B1
B5: human IgG2 anti-mouse CD40 surface displayed antibody, Fc mutant I332A (antibody, name in EU numbering)
light chain (with the P2A rest): B1 light chain (with the P2A rest)
heavy chain: B1 heavy chain with L293S, I327A
notes: as for B1
B6: human IgG2 anti-mouse CD40 surface displayed antibody, Fc mutant S267A (antibody, name in EU numbering)
light chain (with the P2A rest): B1 light chain (with the P2A rest)
heavy chain: B1 heavy chain with S262A, L293S
notes: as for B1
B7: human IgG2 anti-mouse CD40 surface displayed antibody, Fc mutant S298E (antibody, name in EU numbering)
light chain (with the P2A rest): B1 light chain (with the P2A rest)
heavy chain: B1 heavy chain with L293E
notes: as for B1
B8: human IgG2 anti-mouse CD40 surface displayed antibody, Fc mutant V266A (antibody, name in EU numbering)
light chain (with the P2A rest): B1 light chain (with the P2A rest)
heavy chain: B1 heavy chain with V261A, L293S
notes: as for B1
B9: human IgG2 anti-mouse CD40 surface displayed antibody, Fc mutant I332C (antibody, name in EU numbering)
light chain (with the P2A rest): B1 light chain (with the P2A rest)
heavy chain: B1 heavy chain with L293S, I327C
notes: as for B1
B10: human IgG2 anti-mouse CD40 surface displayed antibody, Fc mutant L328E (antibody, name in EU numbering)
light chain (with the P2A rest): B1 light chain (with the P2A rest)
heavy chain: B1 heavy chain with L293S, L323E
notes: as for B1
B11: human IgG2 anti-mouse CD40 surface displayed antibody, Fc mutant S267M (antibody, name in EU numbering)
light chain (with the P2A rest): B1 light chain (with the P2A rest)
heavy chain: B1 heavy chain with S262M, L293S
notes: as for B1

Biological target: T1, Biotin-FcγRIIB (human, UniProt P31994 43-217, limits assumed, biotin-labelled)
T1 construct: Bought, biotin-labelled; used at 1 µg/ml for staining and sorting; also called human FcγRIIB; CD32b
T1 sequence (looked up): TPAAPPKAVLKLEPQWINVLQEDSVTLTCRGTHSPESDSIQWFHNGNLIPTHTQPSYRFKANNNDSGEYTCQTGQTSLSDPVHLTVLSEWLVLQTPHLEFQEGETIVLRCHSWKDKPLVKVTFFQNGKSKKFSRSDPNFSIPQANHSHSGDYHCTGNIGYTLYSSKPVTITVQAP
Experiment: FACS sorting of displayed Fc library on biotin-FcγRIIB, NGS

Row | Binder | Increased factor b Site 2 (point mutation/wild-type) | Increased factor b Site 1 (point mutation/wild-type)
1 | B1 | 2.9 | 
2 | B2 | 0.2 | 
3 | B3 |  | 3.4
4 | B4 | 2.3 | 
5 | B5 | 16.4 | 
6 | B6 |  | 5.5
7 | B7 | 7.1 | 
8 | B8 |  | 3.1
9 | B9 | 2.7 | 
10 | B10 |  | 0.1
11 | B11 |  | 2.6
